From the domain aggregation screens of Martell et al. (2025)

Test: soluble fraction after stress (log2 fold change); higher = more stays soluble; pooled small domains, quantitative proteomics
Settings: stress: 50 degC
In short: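 Pooled custom libraries of small protein domains were measured in a high-throughput format, with quantitative proteomics as the read-out. Each library was stressed at 50°C. Aggregation propensity is given as the base-two logarithm of the fold change in how much of each protein stays soluble after the stress. Higher values mean a larger share of the protein remains in solution.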

Sequence | soluble fraction (log2)
HMNAPKKPLSAYFLFSQEERLKVKAENPDYSITEVAKELGKRWATLNPDIKTVYEQRYQDARRIYETEMNT | -0.303
HMDYSWNFFIGFSVVDKVAGNLGTIEEIDDKTINTLFLVKNDDEDLIIPATEDFVEKIDAKKRILYLNLPE | -1.56
HMNGARALAGAIAEAIRKQVYRVNERLPAERELASHYDVSRGTLRSALALLEQEGLVTRKVGSGTFVMPP | -0.438
HMTPVKAPLPGVVTKINVSVGQQVKKGENVLVLEAMKMENNIAAEADGTVSGIAVKAGDSVLEGAVLLTI | 0.184
HMKHRFVVGEVLSIGKLQHEITLKTAQGERKFQLDKQDLPASIQDGAKVRAELNEAGRVIDVHPLK | 0.355
HMESKITTAEAAAILNASPQFVRVAMQRGILNIGIAMQMPNSNKWTYNISPKLLGEYSGKNIEYELERLR | -1.54
HMTTAASIGRLVRDARKQRGLTQHELASLLSTSQSAIHRIESGNQNLSLEMINRIAQALESPLIVPGG | -0.163
HMFLTDHEVSKVARKRAHAEYLSSLSWRQRTFGDHGERSKNFEAWYKEHSHLYETEKLYKELYKN | -0.567
HMIQYRKILELHFKDISQRTISTSVGSSRNTVSDVIKRSEQLGLERLTDNMNNRWLEEFLFPEKQ | -4.17
HMKKDNLKKIKSIDEDIENELFKLGIYHFEQISIWSSKNAEWIENFLNLPNYVRANQWVEQAKILK | -1.47
HMKVSAEEQNILDALQAAGGYLPFHDKSNPEEIYEAFGISKKTFKMIIGSLYKQQKINLTQTGIQLII | -0.0574
HMIPRNLEDLVRENQIGLVILKIVEIIGEDNIRDLDPETIYFINRILNELNLKKIRNNILSEALPPR | -1.31
HMRQYKEMPYRLFLIHLGKGLVDEVELSDKAKLTGKLKNGKIFITDNPRTENFKEQLLLHDVKVKEG | 0.12
HMDGYTAVDKAVSDQYYTKENQLYFVSMGNFFSLGAKKIEGADISSFQILTTEYARDLQHLYFNGKV | -0.383
HMDSQKKNETLSSTADEIIKNYAGKRDLSEESMEQLEQFQKDMRGADVNIFTAAQIRMLDQIFQENLH | -0.0243
HMDTIAEFIAELTPLEQKVFHVYYEKGQSLKDTAQQAEITSTSARGALDRIRAKGRHFHLAVILFIG | -0.622
HMSHGYVELKAENNDALISALENHTWFENIKLDPETNLVKAILTKPIEAENLNKMLFEKGIILSHLVKRK | -0.0853
HMNVKVYATIDGDNFKVSGLKPGSNVRVYSSNGSAVFEKKAGDSEMIIPAGAWTKGIYVISADDQSIKVT | -0.109
HMYQNRLFYTLKTGETVADLSKSQDINLSTIWSLNKHLYSSESEMMKAAPGQQIILPLKKLP | -0.105
HMQPAALEAQVIKLVRLHAPIKARQLATILANEFGQHVDRSTVNSLLYQLRAQGKVAQNAAYQWSLT | -0.65
HMIMNKEIPVVADEFVEKEFGTGAVKLTPAHDPNDYESGERHGLEVVEVFDETGKMNDLVPEYEG | 0.551
HMEKIKNLTVTEFNLIANKNPSGSYDRITREALLHIIHKLESSYEAHTDLERKLFYKFRKAKFNAL | -1.91
HMSRRIEIELTSSRPDGSWTWRAAGAREPKGVLDGTLLSQGSKPGDVVKAEAEFDIDGITIVSITQ | -0.18
HMREELIALYRAIARLSEDEQELLNLFYFARRPLSEIAQLTGMTPGAAKTRLYRARRHLRREMEEDGYG | -0.986
HMAYWVVKNNQVSLQINRSNYQITSTARALSNGNLGDEIDVKVLQSGVIKKAVVIGKGQVELLR | -1.89

Sequence | soluble fraction (log2)
HMNSKMTYSDLIGNIEQGNVSSVELASDGKSATVTLTDNSQKQVNIPSLDSFVTYVQDHIKAGTLSVEE | 0.000127
HMQNGNYVVQRQDSLWSIAARISGQTHQPIGEVMNHIKALNEHAFVGGNVNRLRTGTNLNLG | -0.156
HMKNHSTFKSVLSNIEFPINERISGHAIQNPILGLIKADHPNFSSDQYIAISELNFYREKYISNYLLTEI | -3.35
HMDEYTREQFVADMEEGRVREVTIHPNSEVPTGYIRVELANGADMKLYVTDIVEAEELVRSYGFDPPVRDV | 0.128
HMLPADETEARVLNVLGSEPLHVDEIRNQADLPIEKISATLAMMELKGMVRQVGGMNYVAMR | 0.0898
HMEEFGRRLKERMIDKNMTEAELAQKTELWSSILTSYLKGERFPGYYTLLRIAEALDVSIDFLLGLRDEPE | -1.54
HMSPLPDRESLGAIEKLISLLGSSEWTVREKATRELGAFGYLARPVLQRELATSGDPEVSRRLERILSNL | -0.332
HMESYTGLAVTEDDDGWSNVRSGNSTSYSILFKIYAGEKFNILSNDGKWSYIDFNGRKGYIHNSIIRKY | -3.87
HMIDPHGSLTLDLRPRDARVEIIDSNKTYKPGVRLPMGEYAIAVSRRGYISETKRINIEYGDNRERVAL | 0.0829
HMATHGRRAVIELREKIVSGELPGGTRLFEVSLAETLDISRTPVREALSRLAEEGLLDRLPNGGFVVRR | -0.503
HMRRKDIEFTNTMLEELYRHNSKWYDAVVRAYALEIPQKQIAEEMGIRLEAFQSMLFRAKKWIKTKYEADY | -2.51
HMARDDVIRLVQLSLDHLPAKYADALEWKYVEGLSTKEIAARLELGSEAAESLLARARRAFKNDFQEIFES | -1.41
HMTDITSAITRLNKYNKSGTPLTIDSVTPEALQTLQAKVSSAFEIGAVNQQTYDDVTKDIATLQQYLSSA | 0.15
HMTNKSKQRRNEILRASQELFNKKGFHDTSINDIMRRVGAAKGVFYYYFETKDQILDTLIEQHIA | -0.907
HMHDPRLPLPGTLLAREFQGRDIVVKVLDNGFEFDGRRYKSLSAIAQEVTGSKWNGFLFFGI | -0.857
HMQLTDSDFTRLYTYVKNSYGIDLSKKKQLISSRLTNMLIQQGYRDFTQYTDEIISGKNPEMVSAMLNRLT | -0.232
HMKTGIIYGVNGPVIYLKGDTGFKISEMVYVGPEKLVGEVIGLKKHMTTVQVFEETTGLKPGETVIGTGDA | -0.486
HMPAKDAEFTAFVRSATPTLTRTAYLLTGDRETASDLVQEAFVRTYLAWRRVRPEEATAYTRRVLVN | 0.0368
HMGEPLTVVAAAGGDRLDRWLAGQLAGRSRAEIQRWIEAGQVTLAGRSLKASYRLSAGDAIDVAIPPPE | -0.129
HMFKYRELLDWAKNRFDDLEVSIAPKALALLVESIGTDLRLLDSEIQKLSMYKPLEMISTNDVEDLVA | -0.357
HMSVVKPIYIGMMTSEVEAIMGKPFEVITNNNSKNNQLWIYKYQDKRSVMLTFTNYKLIKIE | -0.819
HMEAVIGGIYRHYKGNNYKLLAVATHSETLEKMAVYQALYGEMGIWVRPLAMFMETIEKDGQSLKRFE | -1.78
HMQPRYMLIKTAILDAIERGEMKPGSQVPSENQLAQQHNVSRMTARRALSEMVDDGILMRSQGIGTFVSD | -0.0879
HMYQRLPFSFANRYKMVLESQHPERAPILYYVEPLKSAAIIEVSRVVKNGFTPQAITLDEFDKKLTDAYQR | -0.908
HMAAAKDVMDWQNAIRGLTDAKGKPYSPTYLKTVHNQLSALFNHAVRYYGLQVNPAAKAGNMGVEE | -0.0939

Sequence | soluble fraction (log2)
HMHKLTSRQEEILQFIKDYLSEIGYPPTRSEIAQKMGFRSTNAAEEHLRALARKGAIEILPGPSRGLRLP | -0.455
HMFPELEPDEQLIADLLRKTNNLQINIITVRTGLPINRVTALLFQMEMKGVVRPLAGGTYHLLV | -0.108
HMDGVLVYKEGMTVADMATGLGKTIAQVVMKLMQLGIMANQNQSVDRETVELVALDFGYELKD | -1.76
HMDIPTSAEAVRAYLASGFIKGIGEATARMLVDKFGAETLEIIKTEPMKLTKISGIGPKKAKMIHESYLEK | 0.177
HMQENDLGAVEKIVDDVLHDPKNAQAVADFKAGSEKVLGFLTGQVMKASRGKANPSVVQEVLRQKLKN | -0.00966
HMGGWEEGVYVVREGDTLSDIVHDAVKGTEIHPDFILNAIVRVNPSAFVRGNPSWMLAGKKIK | -0.0469
HMTMVLPDAARDKLKAIGLSIEHVEPSPVKDIFTVISREGVSYVSKDGDYIFTGSLFHVKGKDVVNTTEQA | 0.128
HMRINIVKSKNAEQLYIIHSYRINGKNTSKIYKKLGTMADLLPLHNHDRDQVLAWAKEQARLATEQYDQEN | -0.855
HMADTIEVVVQVNGKVRAKISTSPEVFADSTKLQELALADANVQKFIAGQTIRKVIIPKGTKLLNIV | -0.227
HMSEEAMVSNFRQQEILELARKDGKVTVDGLAELYDVTVQTIRRDLSDLADSGRLKRVHGGAVVPS | 0.262
HMGGALSPDFGWLAMIDPDEGRAITLYDIASGEAIAVLDTHEARVAALAWSPDGTRLASGDQNGLIVQWEI | -0.432
HMAWAVDVGVVGLFPGKAVLVIDGGAPRTVPVGANVGGVRLLAVDQGSATVEIGGKRQRLAIGQHAH | -0.402
HMLEQLTPRELKVLQALAQGRQNKEIAAQLVISERTVKFHVSAILSKLNVGNRTEAVTVAAQRGLISL | -1.03
HMAMYYVIGGDGQQYGPIDEATVRGWLGEGRVSAASLSFKTGEAQWIPLRDRPELADVLATA | 0.112
HMNNPNFAIQKYVTGSDIKRVRKTLRLTQKKFAELVGVSKATMERWETKEDKITGPVVLLLKILEDHPEY | -1.3
HMASDQGAGALREVSAFFEKHGRVPDPDAVDHDEMRLGSIWASIKSAPTDQMRLEDRFGLLD | 0.1
HMNQILDFTREVKNLPEQDKIKIVEALWSIIYSNKDADIYETNLMRRLAGLLYIDNKTMGDIKEKIKQNL | -0.601
HMNKITIEEAKSIALKHSNLDESQVSFIRSEYDFDNGIEKYEIEFYYNNNKYEYEINAKTGDIISYDYDI | -0.292
HMASEKSEQLYQQMKLDIAGMPPDTRLPSIRALMRSYSVSQLLIDRTLGRLREEGALRKRFDGLYTYL | -2.06
HMEEFAGYINGQPYYGPTHQHRGVKMVGAEHTQRPHPLVWDSVAKSLDNYDNRFQWVNGNLLQVV | 0.0306
HMSTTILSFQNRVVIETLHNEGRSLRYIANYLGFSKATIFNELHRLNSEYRAELAQADFERKVSQR | -3.59
HMKQTDQELAEMLRFRAAQRGLLMSDEVVNYVMTRVERSAKSLIMLLDRIDRAALAQARPVTIPLINEL | -0.499
HMEGMQATVTQITDEGITVRYVMNGQMVTRTLTSDEVAFVNRGQAVSDLAGAYRVGQTVWIY | -0.0401
HMSPVPRIEIELTSSKEDGSWTWRAVGAREPRGSLDGALLAKPAAVGDVLRVETDQFLDGMTVTAILPPRD | -0.325
HMNLVGGKINSLMTTKNVTIQDLSERSGLTVSQIELLLSGDKVPSLAVLIKIARGLGVRVGTFL | -1.3
